T1: Pdx3 (Saccharomyces cerevisiae, UniProt P38075)
T1 construct: full-length, synthetic gene in pET28a (NdeI/BamHI), N-terminal His-tag cut by thrombin; E. coli BL21 DE3 Rosetta; 27189 Da; homodimer
T1 sequence (P38075 1-228): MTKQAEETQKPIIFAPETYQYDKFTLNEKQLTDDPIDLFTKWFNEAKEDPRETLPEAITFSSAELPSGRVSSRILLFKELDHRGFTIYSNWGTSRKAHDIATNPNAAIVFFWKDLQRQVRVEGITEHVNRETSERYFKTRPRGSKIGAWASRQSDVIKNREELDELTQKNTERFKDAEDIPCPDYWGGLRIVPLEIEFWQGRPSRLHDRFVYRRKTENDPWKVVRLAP

B1: Ypr172w (natural protein, S. cerevisiae, UniProt Q06608 1-200, looked up)
chain: MAWTSTLPAHLLNLIKNSKYVHVATCSKDCIPSVALMNYIYVPGEKLFGQTDNKNDYIIFVSPQDTQKFYNIKENPKVALLFHDWIIANNLSVGKESISGTPTPTSIPHEEQRQSELLNLLQELNQAELNQMSASIGGETEIVNPESEESKYYKDLILKANPDAKAFIFEKNTAVVKVRIDNARVSNNENRTMFLSKGKS
notes: expected mass after thrombin digestion 22788 Da; A few residues of the vector probably remain after thrombin cleavage (surmised); also called putative P(N/M)P oxidase; source: E. coli BL21 DE3 Rosetta, purified (His Trap HP, thrombin digestion, Superdex 200 gel filtration); not shown: His-tag, N-terminal, cleaved
B2: Pdx3 (enzyme, S. cerevisiae, UniProt P38075 1-228, looked up)
chain: T1 sequence (P38075 1-228)
notes: expected mass after thrombin digestion 27189 Da; A few residues of the vector probably remain after thrombin cleavage (surmised); also called P(N/M)P oxidase; pyridoxamine 5'-phosphate oxidase; source: E. coli BL21 DE3 Rosetta, purified (His Trap HP, thrombin digestion, Superdex 200 gel filtration); not shown: His-tag, N-terminal, cleaved
B3: Ylr456w (natural protein, S. cerevisiae, UniProt Q06199 1-204, looked up)
chain: MKLNEQIPKDLLRLIKSSKYVHVATCSSNCIPSVSLMHYIFVSSAETFHKHEYSIEIDCNDYIIFTVFEKSVTFRNVMSNPNVALLFHDWITAKNLTLRKKSVHSKDDFSFVESESTKFNNFLRDLNQSELNQVSATINGIADIVNPNSEESTYYRRLLLTVNPDADIFILGEDTAIIKVNIQKIKVSDMENNTSTYGQTVQPV
notes: Ylr456w, product of the ORF YLR456W of S. cerevisiae (strain BY4741 cDNA), amplified with primers from the ATG to the stop codon, cloned NdeI/BamHI into pET28a; expected mass after thrombin digestion 23574 Da; A few residues of the vector probably remain at the N-terminus after thrombin cleavage (surmised); also called putative P(N/M)P oxidase; source: E. coli BL21 DE3 Rosetta, purified (His Trap …)

How the values were obtained:
Pdx3 = biological target: T1, Pdx3; assay: FMN fluorescence quenching titration (Ex […] nm, Em […] nm); size-exclusion chromatography co-elution; assay type: binding; conditions: 1 uM FMN titrated with protein, 25 C, pH 7.4; protein as purified already carries FMN
[1] = biological target: the molecule itself; assay: SEC; analytical size-exclusion chromatography, Superdex 75 3.3/300, 10 uM protein, 10 uL injected, buffer A (20 mM Tris, 150 mM NaCl, 1 mM DTT pH 7.4), tryptophan fluorescence; calibrated with transthyretin tetramers (54 kDa) and chymotrypsin monomers (25 kDa)

| Molecule | FMN fluorescence quenching titration (Ex 450 nm, Em 520 nm); size-exclusion chro (Pdx3) | stoichiometry N [1] |
| --- | --- | --- |
| Cc1cc2nc3c(=O)[nH]c(=O)nc-3n(C[C@H](O)[C@H](O)[C@H](O)COP(=O)(O)O)c2cc1C [FMN] | Pdx3 produced a clear quenching effect due to FMN binding |  |
| B1 |  | 2 |
| B2 |  | 2 |
| B3 |  | 2 |

— publication PMC4556617, “Experimental Evidence for a Revision in the Annotation of Putative Pyridoxamine 5'-Phosphate Oxidases P(N/M)P from Fungi” (PLoS ONE, 2015)
